# Measured values published in patent US20260183411A1, “TARGETING SORTILIN” (priority 2024, published 2026).
# Legend:
# [1] = tested on: MDA-MB-231 xenograft; assay: MDA-MB-231 murine xenograft efficacy model; assay type: in vivo, mouse
# How it was run: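 Female BALB/c nude mice bearing subcutaneous MDA-MB-231 tumours (10×10^6 cells in PBS/Matrigel), treated from ~150-200 mm^3 mean volume. Free MMAE given i.v. QW×4 at 0.6 or 0.06 mg/kg in 25 mM histidine/10% sucrose pH 7. Caliper volumes twice weekly; TGI (%) calculated against vehicle group.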
# [2] = Murine hematotoxicity assay; assay type: in vivo, mouse; conditions: 3 mg/kg i.v. QW×4, BALB/c mice
# Experimental: (§1) Murine hematotoxicity experiments were conducted at Charles River Laboratories and the care and use of animals was conducted in accordance with the regulations of the Association for Assessment and Accreditation of Laboratory Animal Care (AAALAC). Wild type BALB/c, female, 7-8 weeks, weighing approximately 18-22 g were randomized and dosed intravenously with control or test articles at a QW×4 schedule. Dosing volume was adjusted based on body weight and was administered at 10 mL/Kg. PDCs were dissolved in 25 mM Histidine 10% sucrose pH 7 and 3 mg/kg was administered. Free MMAE payload was also tested, and similarly dissolved in 25 mM Histidine 10% sucrose pH 7 and administered to the mice at a dose of […] by i.v. injection at a QW×4 schedule. 3 days following each dose, 150 μL of whole blood was collected via submandibular method and placed in K2 EDTA tubes stored on ice. Blood neutrophil counts were performed on the day of collection by IDEXX labs. Body weights were recorded twice a week until study endpoint.
# as §1, with “As outlined in the material” for “Murine hematotoxicity experiments were conducted at Charles River Laboratories”, “methods” for “the care and use”, “Example 1, wild” for “animals was conducted in accordance with the regulations of the Association for Assessment and Accreditation of Laboratory Animal Care (AAALAC). Wild”, “PDCs were dissolved in 25 mM Histidine 10% sucrose pH 7 and 3 mg/kg was administered.” left out
smiles,measurement,setting,value
CC[C@H](C)[C@@H]([C@@H](CC(=O)N1CCC[C@H]1[C@H](OC)[C@@H](C)C(=O)N[C@H](C)[C@@H](O)c1ccccc1)OC)N(C)C(=O)[C@@H](NC(=O)[C@H](C(C)C)N(C)C(=O)OCc1ccc(NC(=O)[C@H](CCCNC(N)=O)NC(=O)[C@@H](NC(=O)CCCC(=O)NCCC(=O)N(C)CC(=O)N(C)CC(=O)N(C)CC(=O)N(C)CC(=O)N[C@@H](C)C(=O)N2CCC[C@H]2C(=O)N[C@@H](CCCNC(=N)N)C(=O)N[C@@H](Cc2c[nH]c3ccccc23)C(=O)N[C@@H](CC(=O)O)C(=O)N[C@@H](C)C(=O)N2CCC[C@H]2C(=O)N[C@@H](CC(C)C)C(=O)N[C@@H](CCCNC(=N)N)C(=O)N[C@@H](CC(=O)O)C(=O)N2CCC[C@H]2C(=O)N[C@@H](C)C(=O)N[C@@H](CC(C)C)C(=O)N[C@@H](CCCNC(=N)N)C(=O)N[C@@H](CCC(N)=O)C(=O)N[C@@H](CC(C)C)C(=O)N[C@@H](CC(C)C)C(=O)O)C(C)C)cc1)C(C)C [PRGN_WT_PDC],"tumor growth inhibition, dose dependence","[1]; 3, 1, 0.3 mg/kg i.v. QW×4",dose-dependent tumor growth inhibition
same,body weight variation (Example 6),"[1]; PDC at each dose, free MMAE at equivalency to 3 mg/kg PDC",mirrored that observed with vehicle treatment
same,body weight loss (Example 8),"[1]; PDCs 3 mg/kg, free MMAE at molar equivalency (0.6 mg/kg)",body weight loss tracked each other
same,blood neutrophil counts compared to vehicle or MMAE treatment,[2],reduced neutrophil counts
